Values belong to the binder of their own block, whether it stands above or below them.
B2: CpcC1 (rod linker protein) (natural protein)
chain: not shown
notes: phycocyanin-associated rod linker CpcC1 of Synechocystis sp; PCC 6803; Pfam00427 domain at the N-terminus, Pfam01383 domain at the C-terminus; native protein in the isolated CpcL-PBS; model started from the AlphaFold database entry; source: endogenous, Synechocystis 6803 ΔapcAB mutant strain; purified as part of CpcL-PBS (sucrose gradient)
B3: CpcL (linker protein of CpcL-PBS) (natural protein, UniProt P74625 1-249, looked up)
chain: MTLPLIAYAPVSQNQRVTNYEVSGDEHARIFTTEGTLSPSAMDNLIAAAYRQVFNEQQMIQSNRQIALESQFKNQQITVRDFIRGLALSDSFRRRNFEVNNNYRFVQMCIQRLLGRDVYSEEEKIAWSIVIATKGLPGFINELLNSQEYLENFGYDTVPYQRRRILPQRISGELPFARMPRYGADHREKLEAIGYFRNQAPLTYRWEWQKQPYPAGVYLAGKVVLYVGGALVSLGIIAVALSAWGIIGL
notes: linker protein CpcL (also called CpcG2) of Synechocystis sp; PCC 6803; Pfam00427 domain resolved, transmembrane region not resolved in the map; native protein in the isolated CpcL-PBS; model started from the AlphaFold database entry; also called CpcG2; source: endogenous, Synechocystis 6803 ΔapcAB mutant strain; purified as part of CpcL-PBS (sucrose gradient)

Key:
Test in all cases: cryo-EM structure; CpcL-PBS isolated from the ΔapcAB strain on a sucrose gradient (0.75 M K/Na-PO4 pH 7.0, 0.0125% glutaraldehyde, 0.03% β-DDM, 22 °C); phosphate diluted on the grid with 50 mM Tris pH 7.0, 0.01% β-DDM; map at 2.64 Å
[1] = molecular target: T1, three-domain ferredoxin-NADP+ oxidoreductase (FNR3D) (Synechocystis sp. PCC 6803 (endogenous …, UniProt Q55318 1-413)); details: both partners purified
T1 construct: ferredoxin-NADP+ oxidoreductase (PetH) of Synechocystis sp; only the CpcD (Pfam01383) domain is resolved in the map; model started from the AlphaFold database entry of PetH; also called PetH; source: endogenous, Synechocystis 6803 ΔapcAB mutant strain; purified as part of CpcL-PBS (sucrose gradient)

[2] = molecular target: B3; details: both partners purified
[3] = molecular target: B2; details: both partners purified
[4] = molecular target: the molecule itself

T1 sequence (Q55318 whole entry): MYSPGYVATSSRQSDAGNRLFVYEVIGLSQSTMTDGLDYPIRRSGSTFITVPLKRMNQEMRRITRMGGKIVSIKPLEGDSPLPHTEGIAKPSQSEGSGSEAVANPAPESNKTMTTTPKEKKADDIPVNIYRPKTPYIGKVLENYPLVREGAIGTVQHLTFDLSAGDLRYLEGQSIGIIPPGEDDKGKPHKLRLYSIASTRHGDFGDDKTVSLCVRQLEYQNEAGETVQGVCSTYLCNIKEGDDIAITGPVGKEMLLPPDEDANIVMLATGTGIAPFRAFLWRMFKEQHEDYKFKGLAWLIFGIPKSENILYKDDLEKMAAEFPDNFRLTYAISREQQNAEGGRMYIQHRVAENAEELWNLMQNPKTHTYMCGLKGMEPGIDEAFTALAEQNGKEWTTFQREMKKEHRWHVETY

- binding result [1]: binds
B1: CpcC2 (rod linker protein) (natural protein)
chain: not shown
notes: phycocyanin-associated rod linker CpcC2 of Synechocystis sp; PCC 6803; Pfam00427 domain at the N-terminus, Pfam01383 domain at the C-terminus; native protein in the isolated CpcL-PBS; model started from the AlphaFold database entry; source: endogenous, Synechocystis 6803 ΔapcAB mutant strain; purified as part of CpcL-PBS (sucrose gradient)

Binder: B2
- stoichiometry N [2]: 1

Binder: B3
- binding result [3]: binds

B4: phycocyanin (PC) αβ monomer (CpcA-CpcB heterodimer) (complex)
chain 1: not shown
chain 2: MFDVFTRVVSQADARGEYLSGSQLDALSATVAEGNKRIDSVNRITGNASAIVSNAARALFAEQPQLIQPGGNAYTSRRMAACLRDMEIILRYVTYATFTGDASVLEDRCLNGLRETYVALGVPGASVAAGVQKMKEAALDIVNDPNGITRGDCSAIVAEIAGYFDRAAAAVA
modifications: phycocyanobilin (PCB) covalently attached (bilin α84) | phycocyanobilin (PCB) covalently attached (bilins β82 and β152; printed β155 in p-0013)
notes: C-phycocyanin alpha subunit CpcA of Synechocystis sp; PCC 6803; as m1; C-phycocyanin beta subunit CpcB of Synechocystis sp; as m2; made for the self-association of the αβ monomer into trimers and hexamers; 18 αβ monomers stand in the three-layered CpcL-PBS; source: endogenous, Synechocystis 6803 ΔapcAB mutant strain; purified as part of CpcL-PBS (sucrose gradient)
- stoichiometry N [4]: 6

- binding result [2]: binds
B5: CpcB (phycocyanin β subunit) (natural protein, UniProt Q54714 1-172, looked up)
chain: MFDVFTRVVSQADARGEYLSGSQLDALSATVAEGNKRIDSVNRITGNASAIVSNAARALFAEQPQLIQPGGNAYTSRRMAACLRDMEIILRYVTYATFTGDASVLEDRCLNGLRETYVALGVPGASVAAGVQKMKEAALDIVNDPNGITRGDCSAIVAEIAGYFDRAAAAVA
modifications: phycocyanobilin (PCB) covalently attached (bilins β82 and β152; printed β155 in p-0013)
notes: C-phycocyanin beta subunit CpcB of Synechocystis sp; PCC 6803; native protein in the isolated CpcL-PBS; 18 copies in the three-layered CpcL-PBS; also called β-PC; PC β subunit; source: endogenous, Synechocystis 6803 ΔapcAB mutant strain; purified as part of CpcL-PBS (sucrose gradient)

Reference: PMC10322944, “Cryo-EM and femtosecond spectroscopic studies provide mechanistic insight into the energy transfer in CpcL-phycobilisomes” (Nature Communications, 2023)
